Biological target: His-tagged full-length ActA (ActA[1–584Rhis]) (Listeria monocytogenes)
Test: co-sedimentation

Chain of His-tagged full-length ActA (ActA[1–584Rhis]) (Listeria monocytogenes) (P33379 30-613 limits assumed): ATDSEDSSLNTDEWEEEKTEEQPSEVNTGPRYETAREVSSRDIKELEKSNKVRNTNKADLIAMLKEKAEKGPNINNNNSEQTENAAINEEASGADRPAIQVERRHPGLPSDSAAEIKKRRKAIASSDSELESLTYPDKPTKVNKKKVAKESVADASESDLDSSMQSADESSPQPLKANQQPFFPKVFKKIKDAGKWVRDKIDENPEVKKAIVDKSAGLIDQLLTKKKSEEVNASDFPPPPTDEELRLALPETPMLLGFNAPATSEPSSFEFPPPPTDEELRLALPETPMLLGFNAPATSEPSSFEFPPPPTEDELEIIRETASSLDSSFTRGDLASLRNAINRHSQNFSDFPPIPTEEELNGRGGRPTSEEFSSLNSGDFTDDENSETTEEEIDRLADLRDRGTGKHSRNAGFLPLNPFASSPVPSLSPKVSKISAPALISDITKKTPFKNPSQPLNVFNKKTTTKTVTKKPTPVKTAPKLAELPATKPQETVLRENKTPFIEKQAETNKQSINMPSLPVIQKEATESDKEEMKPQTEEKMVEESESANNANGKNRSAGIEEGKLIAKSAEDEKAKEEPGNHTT

His-tagged human vasodilator-stimulated phosphoprotein (VASP) (from UniProt P50552 1-380) (natural protein)
percent bound: > 90%

From article PMC2173428
